{"source": "patent US11518805B2", "about": "“Binding inhibitor between TCTP dimer type IgE-dependent histamine releasing factor and receptor thereof, and use thereof” (EWHA UNIVERSITY—INDUSTRY COLLABORATION FOUNDATION, priority 2014, dated 2022)", "molecules": {"B1": {"name": "Del-N11dTCTP: dimer form of amino terminal-deleted TCTP, active HRF form (protein, UniProt P13693 12-172, looked up, fragment)", "chain": "EMFSDIYKIREIADGLCLEVEGKMVSRTEGNIDDSLIGGNASAEGPEGEGTESTVITGVDIVMNHHLQETSFTKEAYKKYIKDYMKSIKGKLEEQRPERVKPFMTGAAEQIKHILANFKNYQFFIGENMNPDGMVALLDYREDGVTPYMIFFKDGLEMEKC", "modifications": "dimer"}}, "key": {"[1]": {"system": "BEAS-2B cells", "assay": "GM-CSF secretion by f-TCTP, Δ-dTCTP and Del-N11dTCTP in BEAS-2B cells", "assay_type": "cell-based", "settings": "protein at 1, 5 or 10 μg/ml, 24 hours, ELISA", "description": "(§1) To investigate the IL-8 and GM-CSF secretory activity of f-TCTP, Δ-dTCTP, and Del-N11dTCTP in BEAS-2B cells, the present inventors compared the activity of f-TCTP, Δ-dTCTP, and Del-N11dTCTP by measuring the secretion of IL-8 in BEAS-2B cells.\n(§2) Particularly, BEAS-2B cells were cultured in a 48-well plate until the confluency reached to 70%. Then, the cells were washed with 1% penicillin-streptomycin/BEBM (Clonetics) twice. Each recombinant protein of the Δ-dTCTP separated in Example 1 of the invention, and the f-TCTP and Del-N11dTCTP constructed by the method described in Korean Patent Application No. 2006-0007663 was added thereto at the concentration of 1 μg/ ? , 5 μg/ ? , or 10 μg/ ? 24 hours later, the supernatant was obtained and the released IL-8 and GM-CSF were quantified by ELISA."}, "[2]": {"system": "BEAS-2B cells", "assay": "IL-8 secretion by f-TCTP, Δ-dTCTP and Del-N11dTCTP in BEAS-2B cells", "assay_type": "cell-based", "settings": "protein at 1, 5 or 10 μg/ml, 24 hours, ELISA", "description": "as §1, §2"}, "[3]": {"biological_target": "T1, Del-N11dTCTP (Rattus norvegicus, UniProt P63029)", "T1 construct": "made in house", "T1 sequence (P63029 11-172 limits assumed)": "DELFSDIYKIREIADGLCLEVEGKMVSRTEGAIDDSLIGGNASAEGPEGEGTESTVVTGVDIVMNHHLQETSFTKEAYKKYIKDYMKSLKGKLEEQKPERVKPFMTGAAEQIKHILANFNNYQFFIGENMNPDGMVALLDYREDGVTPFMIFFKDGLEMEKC", "assay": "Inhibition of Del-N11dTCTP-mediated IL-8 secretion by polyclonal antibodies recognizing FL and H2 domains in BEAS-2B cells", "assay_type": "cell-based", "parameters": "dose or concentration left out as unconfirmed", "settings": "20 hours", "description": "The inhibitory effect on Del-N11dTCTP-mediated IL-8 secretion by the antibody recognizing FL and H2 domains constructed in Example 6 of the invention was investigated by treating the antibody to BEAS-2B cells.\nParticularly, BEAS-2B cells were treated with anti-FL antibody and ani-H2 antibody at different concentrations. Then, Del-N11dTCTP-induced IL-8 secretion was compared. The BEAS-2B cells cultured in a 48-well plate were washed with 1% penicillin-streptomycin/BEBM (Lonza) twice, followed by serum starvation for 7 hours. The antibody diluted in PBS at the concentrations of 1 and 10 ng/ml was reacted with 70 μM Del-N11dTCTP at 37° C. for 2 hours. The reaction mixture was treated to the cells above. 20 hours later, the supernatant was obtained and the released IL-8 therein was quantified by ELISA."}, "[4]": {"biological_target": "T1, Del-N11dTCTP", "assay": "Inhibition of Del-N11dTCTP-mediated IL-8 secretion by polyclonal antibody recognizing C-terminus domain in BEAS-2B cells", "assay_type": "cell-based", "settings": "Del-N11dTCTP 1 μg/mL, 20 hours", "description": "BEAS-2B cells were treated with the antibody recognizing C-terminus domain constructed in Example 8 in order to investigate whether or not the antibody could inhibit the Del-N11dTCTP-mediated IL-8 secretion.\nParticularly, BEAS-2B cells were treated with Del-N11dTCTP (1 μg/mL) by the same manner as described in Experimental Example 4. At this time, the antibody diluted in PBS at the concentration of 40 nM was mixed with 1 μg/mL of Del-N11dTCTP at room temperature, followed by reaction for 10 minutes. The reaction mixture was treated to the cells above. 20 hours later, the supernatant was obtained and the separated IL-8 therein was quantified by ELISA."}, "[5]": {"system": "dTBP2 (dTCTP binding peptide 2)", "assay": "Affinity of TCTP proteins to immobilized biotinylated dTBP2 (ELISA)", "settings": "biotinylated dTBP2 0.01-10 μm on streptavidin plate; protein 0.2 μg/ml; ELISA 450/570 nm", "description": "To investigate the affinity to dTBP2 of f-TCTP, Δ-dTCTP, and Del-N11dTCTP of the present invention, biotin was conjugated to the COOH-terminus of dTBP2 known to bind to HRF, followed by purification. The purified protein was immobilized in the plastic well coated with streptavidin, to which f-TCTP, Δ-dTCTP, and Del-N11dTCTP were added. Then, the binding strength of each protein was investigated.\nParticularly, 50 ? of the biotinylated dTBTP2 dissolved in a buffer (TBS [25 mM Tris, 150 mM NaCl, pH 7.2], 0.1% BSA, 0.05% Tween-20) at different concentrations of 0.01, 0.1, 1, and 10 μm was added to Reacti-Bind Streptavidin Coated Polystyrene Plates (PIERCE), followed by reaction at room temperature for 2 hours. The plate was washed with a washing buffer three times. Each of f-TCTP, Δ-dTCTP, and Del-N11dTCTP was dissolved in TBS at the concentration of 0.2 μg/ ? . 60 ? of the mixture was added to each well of the plate, followed by reaction for 1 hour. The plate was washed with a washing buffer three times. 100 ? of anti-HRF rabbit antibody (Bio-Rad) diluted in a buffer (1:2000) was added to each well of the plate, which stood at room temperature for 30 minutes. The plate was washed with a washing buffer three times and with TBS once, to which HRP-conjugated anti-rabbit antibody (1:2000) was added (100 ? /well), which stood at room temperature for 30 minutes. The plate was washed with a washing buffer three times and with TBS once, to which […] (PIERCE), the peroxydase substrate solution, was added (100 ? /well). Color development was measured at 450 nm and 570 nm using an ELISA reader (Bio-Rad), and affinity was determined by the difference."}}, "note": "Entries after “also recorded” stand apart in the source; their conditions may differ.", "data": [{"molecule": "B1", "values": [{"measurement": "secretion of GM-CSF", "setting": "[1]", "value": "more than f-TCTP and Δ-dTCTP could do; also recorded: superior to f-TCTP and Δ-dTCTP"}, {"measurement": "secretion of IL-8", "setting": "[2]", "value": "more than f-TCTP and Δ-dTCTP could do; also recorded: superior to f-TCTP and Δ-dTCTP"}, {"measurement": "IL-8 secretion, Del-N11dTCTP alone", "setting": "[3]", "value": "increased"}, {"measurement": "IL-8 secretion, PBS together with Del-N11dTCTP", "setting": "[4]", "value": "increased"}, {"measurement": "affinity to dTBP2", "setting": "[5]", "value": "higher affinity to dTBP2 than f-TCTP or Δ-dTCTP; also recorded: higher dTBP2 affinity than f-TCTP and Δ-dTCTP"}]}]}
